Test results from patent US20220411514A1, “ANTI-GAL3 ANTIBODIES AND METHODS OF USE FOR INSULIN RESISTANCE” (TrueBinding, Inc., priority 2021, published 2022).

Experiments:
[1] = target: T1, Human Gal3 peptides (Homo sapiens, UniProt P17931); assay: Gal3 peptide binding ELISA (Example 8); conditions: antibody 5 μg/mL
T1 construct: purchased LifeTein custom order
Experimental: Gal3 peptide binding activity of additional exemplary anti-Gal3 antibodies was assessed with the same peptides as described in FIG. 18 (SEQ ID NOs: 3-26). Human Gal3 peptides (LifeTein, custom order) and human Gal3 proteins (R&D Systems, 8259-GA; TrueBinding, QCB200349) were diluted in PBS (Corning, 21-030-CM) to concentrations of at least 100 μg/mL (peptides) or 1 μg/mL (proteins), and added to the wells of several 96-well ELISA plates (Thermo Fisher, 44-2404-21). After incubating the plates at 4° C. overnight, the plates were washed three times with PBST (PBS with 0.05% Tween 20 [VWR, 0777]). The plates were then blocked for an hour with 2% BSA (EMD Millipore, 126609) in PBST at room temperature with gentle rocking. Thereafter, the 2% BSA in PBST was discarded and Gal3-binding antibodies (reformatted hIgG4 [S228P]) were diluted in 2% BSA in PBST to concentrations of 5 μg/mL and added to the wells. The plates were incubated for an hour at room temperature with gentle rocking and then washed three times with PBST. Afterwards, Peroxidase AffiniPure F(ab′)2 Fragment Goat Anti-Human IgG (H+L) polyclonal antibody (Jackson ImmunoResearch, 109-036-003), was diluted in 2% BSA in PBST (1:4000) and added to the wells. The plates were incubated for 1 hour at room temperature with gentle rocking and then washed three times with PBST. TMB substrate (Thermo Scientific, 34029) was then added to each well. The reaction was stopped with 1M HCl (JT Baker, 5620-02) and read using a plate reader (Molecular Devices) at absorbance of 450 nm.

[2] = target: T2, human Gal3 (Homo sapiens, UniProt P17931); assay: Epitope binning, sandwich format, SPR Carterra LSA (Example 8); type: binding
T2 construct: 6xHis (linker-spaced) (C); purchased AcroBio (Acro Biosystems) GA3-H5129
Experimental: The epitope binning assay was done in a sandwich format on the high-throughput SPR-based Carterra LSA unit (CarterraBio, Salt Lake City, Utah). First, the purified antibodies were diluted to 10 μg/ml concentration in 10 mM NaOAc (pH 5.0) and then were covalently coupled via amine group to HC200M chip activated by EDC and S-NHS to immobilize antibodies to different positions of a 384-spot array. One hundred thirty-eight binning cycles were run on the array of immobilized antibodies. In each cycle, first, human Gal3 (AcroBio GA3-H5129) was injected over the entire array to bind to different antibodies (primary antibody), followed by one antibody (secondary antibody) selected among the panel of 150 anti-GAL3 antibodies tested. At the end of each cycle, the array was regenerated by 10 mM Glycine (pH 2.0) to remove bound antigen and secondary antibody from the array. The data analysis was done using the Epitope software by CarterraBio.

[3] = test system: GLUT4 translocation in L6 GLUT4myc myoblasts; assay: Insulin-stimulated GLUT4 translocation with Gal3 and anti-Gal3 antibody; type: cell-based, rat; conditions: 30 μg/mL Gal3 pre-incubated with 60 μg/mL antibody, 100 nM insulin
Experimental: Rat L6 GLUT4myc myoblasts (Kerafast #ESK202-FP) express a Myc-tagged GLUT4 that can be detected with an anti-Myc antibody. These cells were grown in a 48-well plate in MEM u growth media (Gibco, #12-571-063)+10% fetal bovine serum (FBS; Corning #35-016-CV) until 90-95% confluence was reached. Cells were then washed in PBS and serum starved for 2 hours in MEM u growth media without FBS. Thirty (30) μg/mL recombinant human Gal3 (TrueBinding QCB200347) was pre-incubated with 60 μg/mL anti-Gal3 antibodies for 30 minutes before being added to the serum-starved cells for 1 hour at 37° C. At the end of incubation, half of the cells were treated with 100 nM insulin (Sigma-Aldrich #I5523-50MG) for 20 minutes while the other half acted as basal controls. After 20 minutes, cells were washed quickly with ice cold PBS twice, then incubated with 4% paraformaldehyde (Boster Bio #AR1068) for 10 minutes on ice followed by 10 minutes at room temperature. The cells were washed three times with PBS, then blocked with 0.5 mL 5% goat serum (Vector Laboratories #101098-382) in PBS for 15 minutes. After the blocking agent was aspirated from the cells, 1 μg/ml anti-Myc polyclonal antibody (Sigma-Aldrich #C-3956) in 5% goat serum was added for 1 hour. […] Primary antibody was aspirated away, and then cells washed 5 times with PBS. Next, cells (including background controls) were incubated with 1:1000 goat anti rabbit antibody secondary antibody (Abcam #Ab97051) in 5% Goat serum for 30 minutes at room temperature. After washing, cells were incubated with 400 μL of TMB (Thermo Scientific #PI34029) for 5 minutes, then 200 μL of 1N HCL (Avantor Performance #JT5620-2) was added to stop the reaction. 100 μL of the sample was transferred to a 96 well plate with duplicates transferred for each condition. Samples were read at 450 nm on a SpectraMax plate reader. […] The fold changes were plotted on GraphPad Prism and presented as mean (SEM) of the technical replicates. Statistical significance was determined using unpaired T-tests comparing samples treated with Gal3 and insulin with all other conditions.

T2 sequence (P17931 whole entry): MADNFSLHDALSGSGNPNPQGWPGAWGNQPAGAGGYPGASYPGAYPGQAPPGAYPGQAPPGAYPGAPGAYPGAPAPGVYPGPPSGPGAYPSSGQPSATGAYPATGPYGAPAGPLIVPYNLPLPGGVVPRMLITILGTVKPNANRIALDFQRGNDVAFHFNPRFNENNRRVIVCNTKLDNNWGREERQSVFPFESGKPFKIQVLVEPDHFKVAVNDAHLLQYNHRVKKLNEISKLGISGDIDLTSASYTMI

Row | Molecule | binding to Gal3 peptide 13 (SEQ ID NO: 15) [1] | binding to Gal3 peptide 17 (SEQ ID NO: 19) [1] | epitope bin (mutual competitive binding for Gal3) [2] | effect on Gal3 block of insulin-stimulated GLUT4 translocation [3] | other results
1 | 2D10-hVH4-HVL2: anti-Gal3 antibody, VH SEQ ID NO: 807, VL SEQ ID NO: 822 (antibody, V domains shown, VH-81 Peptide Sequence; VL-79 Peptide Sequence) VH: QVQLVQSGAEVKKPGASVKVSCKASGYTFTDYYINWVRQAPGQRLEWMGWIYPGSQDTKYNEKFQGRVTLTVDTSASTAYMELSSLRSEDTAVYFCANYFGSSGWFFDVWGQGTMVTVSS VL: DIVMTQSPLSLPVTPGEPASISCRSSKSLLHSDGITYLYWYLQKPGQSPQLLIYRMSNLASGVPDRFSGSGSGTDFTLKISRVEAEDVGVYYCAQMIEFPLTFGQGTKLEIK | – | – | – | reduce the ability of Gal3 to block GLUT4 translocation | –
2 | 2D10-hVH4-HVL4: anti-Gal3 antibody, VH SEQ ID NO: 809, VL SEQ ID NO: 824 (antibody, V domains shown, VH-83 Peptide Sequence; VL-81 Peptide Sequence) VH: QVQLVQSGAEVKKPGASVKVSCKASGYTFTDYYINWVRQAPGQRLEWMGWIYPGSQDTKYNEKFQGRVTLTVDTSASTAYMELSSLRSEDTAVYFCANYFGSSGWFFDVWGQGTMVTVSS VL: DIVMTQSPLSLPVTLGQPASISCRSSKSLLHSDGITYLYWYQQRPGQSPQLLIYRMSNLDSGVPDRFSGSGSGTDFTLKISRVEAEDVGVYYCAQMIEFPLTFGQGTKLEIK | – | – | – | reduce the ability of Gal3 to block GLUT4 translocation | –
3 | 2D10-hVH4-HVL3: anti-Gal3 antibody, VH SEQ ID NO: 808, VL SEQ ID NO: 823 (antibody, V domains shown, VH-82 Peptide Sequence; VL-80 Peptide Sequence) VH: QVQLVQSGAEVKKPGASVKVSCKASGYTFTDYYINWVRQAPGQRLEWMGWIYPGSQDTKYNEKFQGRVTLTVDTSASTAYMELSSLRSEDTAVYFCANYFGSSGWFFDVWGQGTMVTVSS VL: DVVMTQSPLSLPVTLGQPASISCRSSKSLLHSDGITYLYWYQQRPGQSPRLLIYRMSNRDSGVPDRFSGSGSGTDFTLKISRVEAEDVGVYYCAQMIEFPLTFGQGTKLEIK | – | – | – | reduce the ability of Gal3 to block GLUT4 translocation | –
4 | 2D10-hVH3-HVL1: anti-Gal3 antibody, VH SEQ ID NO: 810, VL SEQ ID NO: 825 (antibody, V domains shown, VH-84 Peptide Sequence; VL-82 Peptide Sequence) VH: QVQLVQSGAEVKKPGASVKVSCKASGYTFTDYYINWVRQAPGQRLEWMGWIYPGSQDTKYSQKFQGRVTITVDTSASTAYMELSSLRSEDTAVYYCANYFGSSGWFFDVWGQGTMVTVSS VL: DIVMTQSPLSLPVTPGEPASISCRSSKSLLHSDGITYLYWYLQKPGQSPQLLIYRMSNRASGVPDRFSGSGSGTDFTLKISRVEAEDVGVYYCAQMIEFPLTFGQGTKLEIK | – | – | – | reduce the ability of Gal3 to block GLUT4 translocation | –
5 | 847.3B3: anti-Gal3 antibody (antibody, V domains shown) VH: QVQLKESGPGLVAPSQSLSITCTVSGFSLTSYGVHWIRQPPGKGLEWLGGIWAGGSTDYNSPLMSRLSITKDNSKSQVFLKMNSLQSDDTAMYYCASPPSGYDYDVFAYWGQGTLVTVSA VL: DILMTQSPASLSASVGETVTITCRASGNIHNYLAWYQQKQGKSPQLLVYSAKTLADGVPSRFSGSGSGTQFSLKIDSLQPEDFGTYYCQHFWSLFPTFGGGTKLEIK | – | bound | CRD | – | –

Continued, in another order:

Row | binding to Gal3 peptide 13 (SEQ ID NO: 15) [1] | binding to Gal3 peptide 17 (SEQ ID NO: 19) [1] | epitope bin (mutual competitive binding for Gal3) [2] | Molecule | effect on Gal3 block of insulin-stimulated GLUT4 translocation [3] | other results
6 | bound | bound | CRD | 847.23F11: anti-Gal3 antibody (antibody, V domains shown) VH: QVQLQQSGAELVRPGASVKLSCKASGYTFTSSWMNWVKQRPGQGLDWIGMIDPSDSETHYNQMFKDKATLTVDKSSNTAYMQLSRLTSEDSAVYYCVNSNYESGYWGQGTTLTVSS VL: DILMTQSHKFMSTSVGDRVSITCKASQDVSSVVVWYQQKPGQSPKQLIYWASTRHTGVPDRFTGSGSGTDYTLTISSVQAEDLALYYCQQHYSTPYTFGGGTKLEIK | – | –
7 | – | bound | 11 | 849.1D2: anti-Gal3 antibody (antibody, V domains shown) VH: QVQLKESGPVLVAPSQSLSITCTVSGFSLSSYGVHWVRQPPGKGLEWLGVIWAGGSTDYDSALMSRLSISKDNSKSQVFLKMDSLQTDDTAMYYCAKPPYDYDGAWFAYWGQGTLVTVSA VL: DVVMTQTPKFLLVSAGDRVTITCKASQSVSSDVAWYQQKPGQSPKLLIYFASNRYTGVPDRFTGSGYGTDFTFTISTVQAEDLAVYFCQHNYISPFTFGGGTKLEIK | – | binding to Gal3 peptide 1 (SEQ ID NO: 3) [1]: bound
8 | bound | bound | CRD | 847.13E2-mH0mL1: anti-Gal3 antibody (antibody, V domains shown) VH: EVQLQQSGPELVKPGASVKVSCKASGYSFTDYNMYWVMQSHGKSLEWIGYIDPYNDATSYSQKFTGKATLTVDKSSSTAFMHLNSLTSEDSAVYYCARWGRYEYYAMDYWGQGTSVTVSS VL: DIVMTQSPASLPVSLGQRATISCRASKSVTTSAYSYIHWYQQRPGQPPKLLIYLASNLESGVPARFSGSGSGTDFTLNIHPVEEEDAATYYCQHNRELPPTFGGGTKLEIN | – | –
9 | bound | bound | CRD | 847.13E2-mH0mL2: anti-Gal3 antibody (antibody, V domains shown) VH: EVQLQQSGPELVKPGASVKVSCKASGYSFTDYNMYWVMQSHGKSLEWIGYIDPYNDATSYSQKFTGKATLTVDKSSSTAFMHLNSLTSEDSAVYYCARWGRYEYYAMDYWGQGTSVTVSS VL: DIVLTQSPATLSVTPGDSVSFSCRASQIINNNLHWYQQKSHESPRLLIRYTSQSISGIPSRFSGSGSGTDFTLSINNVETEDFGMYFCQQTNSWPLTFGAGTKLELK | – | –
10 | – | – | CRD | 847.28D1: anti-Gal3 antibody (antibody, V domains shown) VH: QVQLVETGPGLVAPSQSLSITCTVSGFSLTSYGVHWIRQSPGKGLEWLGTIWAGGSTDYNSPLMSRLSISKDNSKNQVFLKMNSLQIDDTAIYYCASPPSGYDYDVFASWGQGTLVTVSA VL: DIRMTQSPASLSASVGETVTITCRASGNIHNYLAWYHQKQGKSPQLLVYNVKTLADGVPSRFSGSGSGTQFSLKINSLQPEDFGTYYCQHFWSIFPTFGGGTKLEIK | – | binding to Gal3 peptide 6 (SEQ ID NO: 8) [1]: bound
